± gives the uncertainty stated by the source.

This data set can be described thus: amyloid nucleation score (Sup35N fusion, yeast selection) (log enrichment); library NNK1; higher = more nucleation; inactive = no reads after selection. Summed up: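 The nucleation score equals the log enrichment of output over input reads from DiMSum, centred on the mode score of non-aggregating sequences. It was computed only for sequences with 100 or more input reads. The reads came from Illumina sequencing of plasmid inserts from psi-negative yeast expressing Sup35N fused to peptides of 20 random codons, induced with 100 μM copper sulfate for 24 hours and grown 7 days at 30°C without adenine and uracil.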

As to GTSTHIIFGMAVSSVRRYHM, the amyloid nucleation score worked out at 1.33 ± 0.33.

As to QAFGRLSLATQPLLMEPRRL, the amyloid nucleation score is 0.868 ± 0.41.

Turning to FHFVGLSVTVVLLSFWGWNT, the amyloid nucleation score was 0.78 ± 0.52.

On to MGIWSFDTVTRGAMTSVGDA, for which the amyloid nucleation score worked out at 0.252 ± 0.62.

The substance VVDLVHVCSFFTFYVCATLL showed an amyloid nucleation score of 1.66 ± 0.6.

Substance GRLGITSMMPLGCVINWPRG gave an amyloid nucleation score of 3.02 ± 0.13.

Turning to HIRLAQ, the amyloid nucleation score amounted to 0.157 ± 0.76.

On to FFNRNLMCVVLIVRT, for which the amyloid nucleation score is -0.388 ± 0.47.

Substance YAIRHLKIGSGWWSLWMSSM gave an amyloid nucleation score of -0.522 ± 0.34.

Consider ACSGISILTCIIYRRQYISS, for which the amyloid nucleation score was -1 ± 0.91.

IAAVFHCKNSLMY returned an amyloid nucleation score of 2 ± 0.2.

With SVLWCPRCRYCKFAGVRTWK, the amyloid nucleation score was -0.398 ± 0.97.

Substance YCTGSRVVPDGSLVYATCNM yielded an amyloid nucleation score of 0.895 ± 0.65.

LFCTTSVDNKGPVRLPLVCV displayed an amyloid nucleation score of -0.282 ± 1.7.

KRTLGTRGRIQVKSCPVGEL yielded an amyloid nucleation score of -0.467 ± 0.35.

On to YRLKRINCGHVGHYMEDIRR, for which the amyloid nucleation score is -0.099 ± 0.29.

In turn, LNRVEYS came in with an amyloid nucleation score of 6.843 ± 0.068.

Turning to PINYVDRIRYVCMWCLFVAF, the amyloid nucleation score result is “inactive”.

In turn, SKRATYFFTASLGTQRCLMK displayed an amyloid nucleation score of 1.29 ± 0.9.

Substance IVLRDFHGLSWAWSLIVHVK registered an amyloid nucleation score of 0.039 ± 0.88.

Consider TLDLTHNLCLG, for which the amyloid nucleation score stood at 0.491 ± 0.37.

Consider TVAFWF, for which the amyloid nucleation score entry is “inactive”.

Substance LAAST registered an amyloid nucleation score of 0.311 ± 0.4.

As to TVRKDGNTRSFFSSLRMQAS, the amyloid nucleation score is -0.654 ± 0.3.

The substance SKNHSFDSYVMTVYFHHCGK came in with an amyloid nucleation score of -0.291 ± 0.4.

In the case of GSRCRRLWDM, the amyloid nucleation score was -0.02 ± 0.55.

In turn, CCIVSGFALSSTTRMNVR had an amyloid nucleation score of 1.77 ± 0.15.

On to YKCMSKIFQFLVWAGEEWGL, for which the amyloid nucleation score is -0.398 ± 1.1.

As for GCDCDQVLKYHARCMYVKDE, the amyloid nucleation score result was “inactive”.

On to SISRGWFMWEDNRISRFLLI, for which the amyloid nucleation score is 0.266 ± 0.37.

The substance FPMRSWCLEACRHCRQPTFS returned an amyloid nucleation score of -0.301 ± 1.4.

The substance PDIRYAFVNFDYLATIWVNG returned an amyloid nucleation score of -1.86 ± 1.7.

Regarding RLSIS, the amyloid nucleation score result was “inactive”.

Take NLLGDSLWEPLNLVDGSTLW: the amyloid nucleation score amounted to 0.235 ± 0.3.

NNKCWNIVRLVHRSLTLTRH: the amyloid nucleation score entry is “inactive”.

Take MVSPPLNTSIYLIPCSSLCD: the amyloid nucleation score was -0.407 ± 0.25.

Regarding DCNPSWIPFLVCHRIYACWR, the amyloid nucleation score was determined as 1.41 ± 0.64.

With FDRRLCFVG, the amyloid nucleation score came out at 0.024 ± 0.52.

The substance SLVYYLGEWV returned an amyloid nucleation score of -0.366 ± 0.34.

PFRVLWTCITG yielded an amyloid nucleation score of -0.229 ± 1.4.

In turn, TVYLSNCERIYMQWVREFVS had an amyloid nucleation score of 2.68 ± 0.14.

As to VWKDS, the amyloid nucleation score was -0.285 ± 0.65.

ICLYGACYFGVVWSKGGPGK: the amyloid nucleation score is -0.634 ± 0.32.

As to SYLGTHRFTECILDRVCTLQ, the amyloid nucleation score came out at 0.125 ± 1.4.

For the substance VLYAP, the amyloid nucleation score was -0.33 ± 1.7.

In turn, IREFRRL displayed an amyloid nucleation score of 0.313 ± 0.65.

As to RVTYETNGLWGKNVRYDIVN, the amyloid nucleation score came out at 0.305 ± 0.34.

CRSSSERSIFG had an amyloid nucleation score of 0.439 ± 0.53.

As for VKNRNKGTYRCWVVYITGKS, the amyloid nucleation score was -0.205 ± 0.28.

Substance LRDDRFLMKLHYKKQDSSCV yielded an amyloid nucleation score of 0.324 ± 0.53.

On to SGNTSPCCVSKFDLPHSTGK, for which the amyloid nucleation score was 0.245 ± 0.3.

Turning to DTPRCRGVS, the amyloid nucleation score is -0.197 ± 1.2.

SPGFYLHGYQQNQHP had an amyloid nucleation score of 0.653 ± 0.68.

GRSCKFCYVTWVVPEP gave an amyloid nucleation score of 1.25 ± 0.2.

For TKALLQEVPIT, the amyloid nucleation score is 0.345 ± 1.2.

Regarding RKSAQYHG, the amyloid nucleation score result was “inactive”.

As for LWLHGGARNVDMCKVIFYFG, the amyloid nucleation score came out at 6.94 ± 0.088.

With CLLYCTYVMRLTMLKILVVI, the amyloid nucleation score stood at 1.27 ± 0.63.

In turn, VIIAEVDVVA gave an amyloid nucleation score of -0.186 ± 0.57.

In turn, KIKVPRIVLVCKCILFNNLW returned an amyloid nucleation score of 1.51 ± 0.34.

YHNCDKDAANLFYCQ gave an amyloid nucleation score of 2.01 ± 0.47.

PLRNRNCVPYPHDCLSTSLI displayed an amyloid nucleation score of -0.816 ± 1.3.

As for TYRCGHLLGFVY, the amyloid nucleation score result is “inactive”.

Consider LEAKSAGRVACQHGVALRVG, for which the amyloid nucleation score came to 0.674 ± 0.47.

Turning to ANMDWGRAMFWDGRVGMVRS, the amyloid nucleation score is -0.645 ± 1.7.

In turn, QHWAGIPDLAF gave an amyloid nucleation score of 0.547 ± 0.64.

Turning to KQFDTSGLNVRRSCNRSRHM, the amyloid nucleation score worked out at 0.301 ± 0.56.

As for LTEDLNMPSWCKP, the amyloid nucleation score is 0.087 ± 0.7.

Take FSLYAPSTPYSSMVRIRLSD: the amyloid nucleation score result is “inactive”.

As for TNKGFQYSGLVYCCWVRYLF, the amyloid nucleation score result is “inactive”.

In the case of GKSWLSMKNQISINRRSMIP, the amyloid nucleation score was -0.449 ± 0.5.

For the substance LGPLYQFDICGKGTGYGDHE, the amyloid nucleation score was -0.673 ± 0.71.

NGRIQKLASNTCGLWEDLDT displayed an amyloid nucleation score of 0.501 ± 0.54.

As to NNPLLIPAYPTRNQKVKLIK, the amyloid nucleation score is 0.108 ± 0.39.

With ILFGTAHCIIG, the amyloid nucleation score is 1.52 ± 0.13.

In the case of YSVDKIAYFGINKCRTVLWE, the amyloid nucleation score turned out to be 1.09 ± 0.52.

In turn, GFDKMMCWYYGLTVIVMDGS gave an amyloid nucleation score of -0.076 ± 0.25.

In turn, QQYSVDSRCTTVRYGLYMDM displayed an amyloid nucleation score of 0.662 ± 1.1.

In turn, WVNGMYQGRNEYDEKI yielded an amyloid nucleation score of -0.455 ± 0.56.

Regarding SVVRTMSLLATFLRV, the amyloid nucleation score was -0.795 ± 1.6.

With HWMFFYRDIFCVCVNSFL, the amyloid nucleation score came out at 4.17 ± 0.085.

In the case of AFYNCYSGNYFNYIFIYRCT, the amyloid nucleation score was determined as 7.283 ± 0.053.

In the case of LVRFSSVLCMQHQREV, the amyloid nucleation score came to 0.844 ± 0.55.

The substance LRVYHSYFFSWSSTSLLPAG came in with an amyloid nucleation score of 0.219 ± 0.76.

In turn, RWGRESRLRV came in with an amyloid nucleation score of -0.122 ± 0.29.

Substance KLFDYAVYLC returned an amyloid nucleation score of 0.936 ± 0.5.

For FKLIHAVNFVYLGYAFYAFF, the amyloid nucleation score came out at 1.29 ± 0.38.

The substance HTQYSSRYGFMCSRWIVSGV gave an amyloid nucleation score of 0.684 ± 0.7.

For the substance MVGNIYSSPFYPRYSLTNGT, the amyloid nucleation score is -0.161 ± 0.83.

Substance NPGPYRARHSSDSWRGNYNE returned an amyloid nucleation score of -0.366 ± 0.58.

YAERLIRKWS returned an amyloid nucleation score of 0.06 ± 0.28.

For RCGCRRVVFDGFIGIGALRA, the amyloid nucleation score was 0.298 ± 0.6.

The substance TAVTCLL showed an amyloid nucleation score of -0.175 ± 1.2.

The substance GNVKSTRWFESV gave an amyloid nucleation score of 0.72 ± 0.78.

The substance RTYKINGQSKFSLACITTLS displayed an amyloid nucleation score of -0.125 ± 0.7.

CTWYKFDIGWAEGLGYRDYP displayed an amyloid nucleation score of 0.282 ± 1.2.

In the case of SCSPPIA, the amyloid nucleation score amounted to 0.223 ± 0.46.

With ASKMALYPG, the amyloid nucleation score stood at 0.366 ± 0.56.

As for HHLDPGQTHEIVSCSTWFTF, the amyloid nucleation score is -0.397 ± 0.29.

On to NCVTL, for which the amyloid nucleation score entry was “inactive”.

On to LGHAKRGDWSWLKFSCDSGE, for which the amyloid nucleation score was -0.167 ± 0.48.

RDGAVFYFMEVRVSYRFLTN yielded an amyloid nucleation score of -0.392 ± 0.7.

With VRNDQRLLCRRFVKFSDFQS, the amyloid nucleation score is -0.62 ± 0.95.

In turn, VMFRLTGELGDMKCGVLSDA had an amyloid nucleation score of 1.47 ± 0.38.

The substance VRNDLNTH returned an amyloid nucleation score of 0.377 ± 0.19.

Substance YSLFAGIG came in with an amyloid nucleation score of 0.735 ± 0.85.

MSALARVMLSMRYRIGT had an amyloid nucleation score of -0.395 ± 1.1.

In the case of YDFVIFLGHDACEIYCFLRS, the amyloid nucleation score was determined as 0.935 ± 0.56.

Consider ISVLVHMMRKAFVQG, for which the amyloid nucleation score worked out at 0.768 ± 0.39.

For LFLFRSH, the amyloid nucleation score is 5.445 ± 0.048.

In turn, SSCVRN came in with an amyloid nucleation score of -0.153 ± 0.57.

Substance NHLRGKCTWGRYCWSVVIRF returned an amyloid nucleation score of 0.362 ± 0.83.

In turn, NNGRLYVTIRLMDINLVVHT came in with an amyloid nucleation score of 0.616 ± 0.43.

The substance GVVGNTHQVPNRGRRSRFLL yielded an amyloid nucleation score of -1.54 ± 1.7.

ICVLCC returned an amyloid nucleation score of 1.15 ± 0.62.

In the case of SWYVVG, the amyloid nucleation score was -0.373 ± 0.97.

YTASMTIFLDLLP had an amyloid nucleation score of 2.07 ± 0.15.

Take YYFSVYQFCGGVFGSRDCLE: the amyloid nucleation score amounted to 6.711 ± 0.05.

The substance HNHADATQKKCGVQ yielded an amyloid nucleation score of -0.112 ± 0.28.

Regarding KMRKIDAR, the amyloid nucleation score was 2.63 ± 0.11.

For the substance PSSTNMGRDGWLDCQVHTFE, the amyloid nucleation score was -0.009 ± 0.28.

As for FTIVLELFRNFSRSKVYEDV, the amyloid nucleation score was -0.756 ± 2.4.

Take NGLQMDCWPLCWRGGGARNC: the amyloid nucleation score is 0.582 ± 0.38.

HAGLQRALTPQIRLFSGLAS showed an amyloid nucleation score of -0.268 ± 1.4.

ALSSWLCGSG: the amyloid nucleation score was found to be 0.746 ± 0.9.

With RDKLYA, the amyloid nucleation score was -1.2 ± 1.5.

With QIFYSFTLYCNRNGWRDVFL, the amyloid nucleation score came out at 0.269 ± 0.59.

GHIHFWASRDLPTKCHILGL: the amyloid nucleation score was -0.181 ± 0.67.

As to VSIGILLFILPSRTGCVCLM, the amyloid nucleation score amounted to 0.087 ± 0.66.

On to TSVSNMFENPKNLSLVPTVG, for which the amyloid nucleation score amounted to 1.94 ± 0.5.

Take RISRSISVDALMIRAGYLPN: the amyloid nucleation score entry is “inactive”.

Take NVDRSCWRRECPDCWVMLNM: the amyloid nucleation score was 0.664 ± 0.49.

As for ILAVLVTYIANTACSWYYVF, the amyloid nucleation score came to 0.052 ± 0.64.

Substance FYGIARNVLRVGESMARYT showed an amyloid nucleation score of -0.059 ± 1.2.

FLSIYDTIVDCWVALVLVRG registered an amyloid nucleation score of -0.723 ± 0.91.

MAEINYWTFSLVLELSARCV yielded an amyloid nucleation score of -1.07 ± 1.2.

RCSSGSRICAMRLLGYSSYI showed an amyloid nucleation score of -0.066 ± 0.75.

Substance MITSR returned an amyloid nucleation score of 1.11 ± 0.53.

In turn, GAVDSYLQRLFGLFRWDTLK showed an amyloid nucleation score of -0.375 ± 0.64.

On to CILGNME, for which the amyloid nucleation score entry is “inactive”.

TRYVNMIFPPLVCWGDEILW showed an amyloid nucleation score of 0.873 ± 0.77.

Values taken from the supplement of paper PMC12042874.
